Laboratory results: publication PMC6442593
“And” between values parts separate entries of the source, which are not always exact repeats. Equal values may be shown once.

Biological target: uPAR-tagged soluble human GPIHBP1-S107C (human) (UniProt Q8IV16)
Assay: density gradient ultracentrifugation

stoichiometry N: 2 and 3
Substance: uPAR-tagged soluble human GPIHBP1-S107C (from UniProt Q8IV16 21-151) (domain or fragment)
